The values that follow are results of earlier work, collected in PMC5801593.

The term Kd denotes a measure of binding affinity in units of concentration.

The target of this series is IscS (Escherichia coli) (UniProt P0A6B7). The experiment in a line: fluorescence labeling and calorimetry.
Sequence of IscS (Escherichia coli) (P0A6B7 whole entry): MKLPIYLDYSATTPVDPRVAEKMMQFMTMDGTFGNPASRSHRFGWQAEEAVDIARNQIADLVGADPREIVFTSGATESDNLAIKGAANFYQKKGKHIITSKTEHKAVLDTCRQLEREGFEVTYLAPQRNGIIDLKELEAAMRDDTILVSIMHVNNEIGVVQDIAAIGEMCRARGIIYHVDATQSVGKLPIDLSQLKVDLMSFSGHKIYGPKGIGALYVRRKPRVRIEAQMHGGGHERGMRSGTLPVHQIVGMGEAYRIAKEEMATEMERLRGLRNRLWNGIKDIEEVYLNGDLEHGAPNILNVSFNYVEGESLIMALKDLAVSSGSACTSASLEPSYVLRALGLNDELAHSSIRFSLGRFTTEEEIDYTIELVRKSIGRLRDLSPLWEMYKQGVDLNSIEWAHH

Sequence of CyaY (P27838 whole entry): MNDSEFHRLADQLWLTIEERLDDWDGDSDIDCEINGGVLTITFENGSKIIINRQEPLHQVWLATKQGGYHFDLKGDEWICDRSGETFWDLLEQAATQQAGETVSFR

Regarding CyaY (from UniProt P27838), the Kd is 20 µM. Turning to IscX (from UniProt P0C0L9), the Kd was 12 µM.
